Experimental findings from patent publication US20100183625A1, “Treatment of Mucositis with Kallikrein Inhibitors” (Dyax Corp., priority 2009, published 2010) are described below.

Residue numbers refer to the chain shown, from its start.

B1: M137-E12: antibody inhibitor of pKal; HV-CDR3 … (antibody, V domains shown)
VL: QSVLIQPPSVSGIPGQRVTISCSGNNSNFGSNTVTWYQQLPGTAPKLLIYSDSRRPSGVPDRFSGSRSDTSASLAISGLQSEDEAEYHCAAWDDSLNGVFGGGTKLTVL
VH: EVQLLESGGGLVQPGGSLRLSCAASGFTFSDYRMQWVRQAPGKGLEWVSVIVPSGGNTMYADSVKGRFTISRDNSKNTLYLQMNSLRAEDTAVYYCARGGPGSSIAARRAPTGYYGMDVWGQGTTVTVSSASTKGPSVFPLAPSSKS
B2: M12-D05: antibody inhibitor of pKal; HV-CDR3 EGLLWFGENAFDI (antibody, V domains shown)
VL: QSVLTQPPSVSVSPGQTATITCSGDQLGDKYVGWYQQKPGQSPILVIYQDTKRPSGIPERFSGSNSGNTATLTISGTHTVDEAHYYCQAWDTSTAGFGGGTKLTVL
VH: EVQLLESGGGLVQPGGSLRLSCAASGFTFSWYTMVWVRQAPGKGLEWVSRIYPSGGWTKYADSVKGRFTISRDNSKNTLYLQMNSLRAEDTATYYCAREGLLWFGENAFDIWGQGTMVTVSSASTKGPSVFPLAPSSKS
B3: M28-B11: antibody inhibitor of pKal; HV-CDR3 EGLLWFGENAFDI (antibody, V domains shown)
VL: B2 VL
VH: B2 VH
B4: M202-A12 (antibody, V domains shown)
VL: QDIQMTQSPSTLSASVGDRVTITCRASQSISSWLAWYQQKPGKAPNLLIYKASTLESGVPSRFSGSGSGTEFTLTISSLQPDDFATYYCQQYNTYWTFGQGTKVEIK
VH: EVQLLESGGGLVQPGGSLRLSCAASGFTFSHYIMMWVRQAPGKGLEWVSGIYSSGGITVYADSVKGRFTISRDNSKNTLYLQMNSLRAEDTAVYYCAYQRTGVPRRDSFNIWGQGTMVTVSSASTKGPSVFPLAPSSKS
B5: M210-C12 (antibody, V domains shown)
VL: QDIQMTQSPGTLSLSPGERATLSCRTSQFVNSNYLAWYQQTPGQAPRLLIYGASSRATGIPDRFSGTGYGTDFTLTISRLEPEDYGTYYCQQSSRTPWTFGQGTRVEIK
VH: EVQLLESGGGLVQPGGSLRLSCAASGFTFSHYLMTWVRQAPGKGLEWVSYISPSGGHTIYADSVKGRFTISRDNSKNTLYLQMNSLRAEDTAVYYCARVAQGIAARSRTSSVDQWGQGTLVTVSSASTKGPSVFPLAPSSKS
B6: M209-F04 (antibody, V domains shown)
VL: B5 VL
VH: B5 VH with Q101R, S111Y, V112L
B7: M206-F01 (antibody, V domains shown)
VL: B5 VL
VH: B5 VH with H31G, L33M, T35V, Y50R, H57P, Q101R, S111Y, V112F, Q114Y
B8: X66-H02: single point mutation of M142-H08 (P1); HV-CDR3 GGLLLWFGELKSNYFDY (antibody, V domains shown)
VL: QDIQMTQSPSSLSAFVGDRVTITCRASQPIDNYLNWYHQKPGKAPKLLIYAASRLQSGVPSRLSGSGFGTDFTLTISSLQPEDFGNYYCQQSYTVPYTFGGGTKVEIR
VH: EVQLLESGGGLVQPGGSLRLSCAASGFTFSAYSMIWVRQAPGKGLEWVSYIRPSGGRTTYADSVKGRFTISRDNSKNTLYLQMNSLRAEDTAVYYCARGGLLLWFGELKSNYFDYWGQGTLVTVSSASTKGPSVFPLAPSSKS
B9: X66-F10: single point mutation of M142-H08 (P1); HV-CDR3 GGLLLWFPELKSNYFDY (antibody, V domains shown)
VL: B8 VL
VH: B8 VH with G106P
B10: X66-A07: single point mutation of M142-H08 (P1); HV-CDR3 GGLLLWFKELKSNYFDY (antibody, V domains shown)
VL: B8 VL
VH: B8 VH with G106K
B11: X66-H11: single point mutation of M142-H08 (P1); HV-CDR3 GGLLLWFTELKSNYFDY (antibody, V domains shown)
VL: B8 VL
VH: B8 VH with G106T
B12: X66-C03: single point mutation of M142-H08 (P1); HV-CDR3 GGLLLWFLELKSNYFDY (antibody, V domains shown)
VL: B8 VL
VH: B8 VH with G106L
B13: X66-E04: single point mutation of M142-H08 (P1); HV-CDR3 GGLLLWFQELKSNYFDY (antibody, V domains shown)
VL: B8 VL
VH: B8 VH with G106Q
B14: X66-C02: single point mutation of M142-H08 (P1); HV-CDR3 GGLLLWFVELKSNYFDY (antibody, V domains shown)
VL: B8 VL
VH: B8 VH with G106V
B15: X66-F01: single point mutation of M142-H08 (P1); HV-CDR3 GGLLLWFSELKSNYFDY (antibody, V domains shown)
VL: B8 VL
VH: B8 VH with G106S
B16: X66-G05: single point mutation of M142-H08 (P1); HV-CDR3 GGLLLWFMELKSNYFDY (antibody, V domains shown)
VL: B8 VL
VH: B8 VH with G106M
B17: X66-F09: single point mutation of M142-H08 (P1); HV-CDR3 GGLLLWFWELKSNYFDY (antibody, V domains shown)
VL: B8 VL
VH: B8 VH with G106W
B18: X66-C11: single point mutation of M142-H08 (P1); HV-CDR3 GGLLLWFHELKSNYFDY (antibody, V domains shown)
VL: B8 VL
VH: B8 VH with G106H

T3 sequence (P03952 391-638 limits assumed): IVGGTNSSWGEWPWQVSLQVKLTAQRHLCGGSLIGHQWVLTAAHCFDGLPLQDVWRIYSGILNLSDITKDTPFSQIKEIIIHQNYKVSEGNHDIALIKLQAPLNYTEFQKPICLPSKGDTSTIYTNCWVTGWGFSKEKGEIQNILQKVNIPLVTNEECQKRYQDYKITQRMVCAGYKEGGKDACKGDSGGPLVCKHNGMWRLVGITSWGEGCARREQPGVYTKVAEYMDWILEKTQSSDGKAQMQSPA
T3 sequence (P03952 20-390 partner limits assumed): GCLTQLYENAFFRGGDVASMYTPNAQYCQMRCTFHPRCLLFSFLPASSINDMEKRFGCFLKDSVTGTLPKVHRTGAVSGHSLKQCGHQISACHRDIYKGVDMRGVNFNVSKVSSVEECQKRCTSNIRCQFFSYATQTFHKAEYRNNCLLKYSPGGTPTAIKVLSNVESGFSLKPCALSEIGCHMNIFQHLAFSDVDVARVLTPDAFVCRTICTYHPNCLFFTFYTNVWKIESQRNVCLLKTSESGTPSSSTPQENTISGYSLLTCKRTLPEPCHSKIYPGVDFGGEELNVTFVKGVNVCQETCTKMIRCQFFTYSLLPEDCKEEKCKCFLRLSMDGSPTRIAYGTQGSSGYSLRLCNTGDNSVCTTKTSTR
T2 sequence (P03952 391-638 limits assumed): as the sequence (P03952 391-638 limits assumed) above
T2 sequence (P03952 20-390 partner limits assumed): as the sequence (P03952 20-390 partner limits assumed) above
T1 sequence (P03952 391-638 limits assumed): as the sequence (P03952 391-638 limits assumed) above
T1 sequence (P03952 20-390 partner limits assumed): as the sequence (P03952 20-390 partner limits assumed) above

One assay addresses T1, human plasma kallikrein (human pKal) (Homo sapiens, UniProt P03952).
T1 construct: two disulfide linked polypeptides; a heavy chain of approximately 52 kDa and a catalytic domain of approximately 34 kDa; host or cells: human plasma
As to the kind of experiment: Ki,app against human pKal by steady state enzyme kinetics (in vitro protease cleavage assay, Pro-Phe-Arg-aminomethylcoumarin substrate). Type of assay: biochemical. As to conditions: Table 6; read-out: Human pKal (Ki, app nM). An excerpt:
The inhibition constant (Ki) provides a measure of inhibitor potency; it is the concentration of inhibitor required to reduce enzyme activity by half and is not dependent on enzyme or substrate concentrations. The apparent Ki (Ki,app) is obtained at different substrate concentrations by measuring the inhibitory effect of different concentrations of inhibitor (e.g., inhibitory binding protein) on the extent of the reaction (e.g., enzyme activity); fitting the change in pseudo-first order rate constant as a function of inhibitor concentration to the Morrison equation (Equation 1) yields an estimate of the apparent Ki value. The Ki is obtained from the y-intercept extracted from a linear regression analysis of a plot of Ki,app versus substrate concentration.
Where v=measured velocity; v0=velocity in the absence of inhibitor; Ki,app=apparent inhibition constant; I=total inhibitor concentration; and E=total enzyme concentration.
The sequence of human plasma kallikrein that was used in selections and subsequent screening of binding proteins is shown below (accession number NP_000883.2). The human plasma kallikrein (86 kDa) that was used was purified from human plasma and activated with factor XIIa by a commercial vendor. Factor XIIa activates prekallikrein by cleaving the polypeptide sequence at a single site (between Arg371-Ile372, cleavage site marked by “/” in the sequence below) to generate active plasma kallikrein, which then consists of two disulfide linked polypeptides; a heavy chain of approximately 52 kDa and a catalytic domain of approximately 34 kDa [Colman and Schmaier, (1997) “Contact System: A Vascular Biology Modulator With Anticoagulant, Profibrinolytic, Antiadhesive, and Proinflammatory Attributes” Blood, 90, 3819-3843]
These antibodies were produced as Fab fragments in small scale (˜20 μg) and tested for inhibition against human pKal in an in vitro protease cleavage assay using Pro-Phe-Arg-aminomethylcoumarin as the synthetic peptide substrate. […] Five antibodies were then expressed in 293T cells and purified by protein A sepharose chromatography. The antibodies were analyzed by SDS-PAGE to determine which of the inhibitory mutants are not cleaved by the host cell protease(s) (data not shown).
For the molecule B1, the Ki was 79 nM.

For the molecule B2, the Ki worked out at 5.2 nM. As to B3, the Ki was 5.5 nM.

Still in this assay, the particulars now being: human pKal; Table 12, antibodies based on M162-A04; read-out: human pKal Ki, app.
For the molecule B4, the Ki turned out to be 0.2 nM.

The same assay, now with this note: human pKal; Table 13, antibodies based on X63-G06; read-out: human pKal Ki, app.
For B5, the Ki amounted to 0.16 nM.

As for B6, the Ki turned out to be 0.09 nM. Same read-out and setting: in the case of B7 it was 0.2 nM.

The next assay addresses T2, biotinylated plasma kallikrein (human pKal) (Homo sapiens, UniProt P03952).
T2 construct: two disulfide linked polypeptides; a heavy chain of approximately 52 kDa and a catalytic domain of approximately 34 kDa; host or cells: human plasma
As to the kind of experiment: Human pKal ELISA (T/B). As to conditions: ELISA signal of target (biotinylated plasma kallikrein) divided by signal of background (streptavidin); Table 6. Type of assay: binding. A general note: ELISA stands for enzyme-linked immunosorbent assay.
For B1, the “Human pKal ELISA (T/B)” value stood at 4.5. Same read-out and setting: in the case of B2 it was 48.5; in that of B3, 33.3.

The next assay addresses T3, pKal (Homo sapiens, UniProt P03952).
T3 construct: two disulfide linked polypeptides; a heavy chain of approximately 52 kDa and a catalytic domain of approximately 34 kDa; host or cells: human plasma
As to the kind of experiment: Fab fragments (small scale) tested for inhibition against human pKal in an in vitro protease cleavage assay. Type of assay: biochemical. Conditions: Table 9.
As for B8, the “Inhibit as a Fab?” value is recorded as “No”. For the molecule B9, the “Inhibit as a Fab?” value is “No”. Consider B10, for which the “Inhibit as a Fab?” value is reported as “No”. Consider B11, for which the “Inhibit as a Fab?” value is recorded as “No”.

For B12, the “Inhibit as a Fab?” value was “No”. Same read-out and setting: for B13 the value was “No”; for B14, “No”. Take B15: the “Inhibit as a Fab?” value is “No”. Regarding B16, the “Inhibit as a Fab?” value is recorded as “No”. Same read-out and setting: for B17 the value was “No”; for B18, “No”.

In the next assay the target is T3, pKal. In words: Inhibition screening with 10 nM antibody (as Fab fragments). Type of assay: biochemical. As to conditions: Table 12, antibodies based on M162-A04. From the text: The 82 antibodies that were discovered based on improvements in M162-A04 due to modifications in either the CDR1/2 and CDR3 region are shown in Table 12.
The 62 antibodies that were discovered based on improvements in X63-G06 due to modifications in either the CDR1/2 and CDR3 region are shown in Table 13.
Usually % inhibition stands for how much of the control response was suppressed. Lower therefore signals little suppression. With B4, the “% inhibition at 10 nM” value worked out at 97.5%.

The assay is the same for the next values; noted with them: Table 13, antibodies based on X63-G06.
For the molecule B5, the “% inhibition at 10 nM” value was found to be 95.6%. Still for that read-out and setting: in the case of B6 it was 97.6%; in that of B7, 92.6%.
